Kd data for 26 sequences are collected here from the Immune Epitope Database (IEDB).

The target of one experiment is HLA-B*08:01. As to the kind of experiment: IEDB peptide-MHC binding, purified MHC/competitive/radioactivity; filed as Kd, often an IC50 or EC50 that approximates it; ≥ and ≤ were set here for values at or beyond the usual limits of such assays. To be noted: source organism: Dengue virus 4 Philippines/H241/1956.
The target of experiment [1] is HLA-B*51:01. Described as above.
The target of a further experiment is HLA-B*48:01. Kind of experiment: IEDB peptide-MHC binding, purified MHC/direct/fluorescence; filed as Kd, often an IC50 or EC50 that approximates it; ≥ and ≤ were set here for values at or beyond the usual limits of such assays. Particulars: source organism: Salmonella enterica subsp. enterica serovar Typhi.
Another experiment addresses HLA-B*15:01. Kind of experiment: IEDB peptide-MHC binding, purified MHC/competitive/fluorescence; filed as Kd, often an IC50 or EC50 that approximates it; ≥ and ≤ were set here for values at or beyond the usual limits of such assays. Particulars: source organism: Homo sapiens.
The next experiment deals with HLA-B*27:03. Described as above.
The next experiment concerns the target HLA-B*57:01. The experiment is described as above.
In experiment [2] the target is HLA-A*02:01. The description is as above. To be noted: source organism: Homo sapiens.
The target of another experiment is HLA-B*46:01. Described as above.
The target in experiment [3] is HLA-B*18:01. The description is as above.
The next experiment has as its target HLA-B*15:17. The description is as above.
A further experiment addresses HLA-A*26:01. Described as above.
The target of experiment [4] is HLA-B*51:01. The description is as above.
For a further experiment, the target named is HLA-B*39:01. Described as above. To be noted: source organism: Homo sapiens.
The target of another experiment is HLA-A*69:01. The description is as above.
For the next experiment, the target named is HLA-B*53:01. As to the kind of experiment: IEDB peptide-MHC binding, purified MHC/competitive/radioactivity; filed as Kd, often an IC50 or EC50 that approximates it; ≥ and ≤ were set here for values at or beyond the usual limits of such assays. To be noted: source organism: Dengue virus 3 Martinique/1243/1999.
For the next experiment, the target named is HLA-B*35:01. Described as above. To be noted: source organism: Dengue virus 3 Martinique/1243/1999.
The target of a further experiment is HLA-A*24:03. Kind of experiment: IEDB peptide-MHC binding, purified MHC/direct/fluorescence; filed as Kd, often an IC50 or EC50 that approximates it; ≥ and ≤ were set here for values at or beyond the usual limits of such assays.
Another experiment concerns the target HLA-A*01:01. Kind of experiment: IEDB peptide-MHC binding, purified MHC/competitive/radioactivity; filed as Kd, often an IC50 or EC50 that approximates it; ≥ and ≤ were set here for values at or beyond the usual limits of such assays. Particulars: source organism: Dengue virus 1 Brazil/97-11/1997.
The target of experiment [5] is HLA-A*02:01. Described as above.
For another experiment, the target named is HLA-B*40:01. The experiment is described as above.
For experiment [6], the target named is HLA-B*18:01. The description is as above.
The target in the next experiment is HLA-B*44:03. The description is as above.
A further experiment deals with HLA-B*45:01. The experiment is described as above.
The target of another experiment is HLA-B*44:02. Described as above.
The next experiment addresses HLA-B*40:02. The experiment is described as above.
A further experiment deals with HLA-A*03:01. As to the kind of experiment: IEDB peptide-MHC binding, purified MHC/direct/fluorescence; filed as Kd, often an IC50 or EC50 that approximates it; ≥ and ≤ were set here for values at or beyond the usual limits of such assays. Particulars: source organism: Araucaria virus.
Experiment [7] has as its target HLA-A*02:01. The description is as above.
The next experiment concerns the target HLA-A*02:06. Kind of experiment: IEDB peptide-MHC binding, purified MHC/competitive/radioactivity; filed as Kd, often an IC50 or EC50 that approximates it; ≥ and ≤ were set here for values at or beyond the usual limits of such assays. Particulars: source organism: Dengue virus 2 Jamaica/1409/1983.
The target of a further experiment is HLA-A*02:03. The experiment is described as above. To be noted: source organism: Homo sapiens.
A further experiment concerns the target HLA-A*68:02. Described as above. Particulars: source organism: Homo sapiens.
Where [8] appears, read: source organism: Dengue virus 3 Martinique/1243/1999.
Setting [9] is: source organism: SARS coronavirus Tor2.
Setting [10] is: source organism: Lymphocytic choriomeningitis virus (strain Traub).
[11] abbreviates: source organism: Araucaria virus.
Setting [12] is: source organism: Lymphocytic choriomeningitis virus (strain Armstrong).
The mark [13] stands for this setting: source organism: Mammarenavirus brazilense.

pKd: −log10 of the molar value. Bounds are passed on as bounds.

Broadly, the pKd is −log10 of the Kd, conventionally taken in molar units. Take VALLRTYCI: the pKd was 7.45 with HLA-B*08:01 and 6.41 in the experiment with HLA-B*51:01 [1] (source organism: Dengue virus 4 Philippines/H241/1956).
For RAVEPGSML, the pKd in the experiment with HLA-B*48:01 is 6.15.
Regarding IYDFYYLDY, the pKd in the experiment with HLA-B*15:01, in the experiment with HLA-B*27:03 (source organism: Homo sapiens), in the experiment with HLA-B*57:01 (source organism: Homo sapiens), with HLA-A*02:01 [2], in the experiment with HLA-B*46:01 (source organism: Homo sapiens) and with HLA-B*18:01 [3] (source organism: Homo sapiens) was ≤ 4.70 throughout. In addition, the pKd with HLA-B*15:17 (source organism: Homo sapiens), with HLA-A*26:01 (source organism: Homo sapiens), with HLA-B*51:01 [4] (source organism: Homo sapiens), in the experiment with HLA-B*39:01 and with HLA-A*69:01 (source organism: Homo sapiens) was ≤ 4.70 throughout.
In the case of FPQSNAPIQD, the values for the pKd in the experiment with HLA-B*53:01, with HLA-B*35:01 and with HLA-B*51:01 [1] (setting [8]) were 5.71, 5.95 and ≤ 4.16, respectively.
Sequence SFMQEIPTF gave a pKd in the experiment with HLA-A*24:03 (source organism: Mammarenavirus juninense) of 9.52.
Turning to FTQTAGPWHL, the pKd is ≤ 4.44 with HLA-B*51:01 [1] (source organism: Dengue virus 1 Brazil/97-11/1997) and ≤ 4.63 with HLA-A*01:01.
As to KLVSLGVNAV, in the experiment with HLA-A*02:01 [5] (source organism: Hepatitis C virus subtype 1b), the pKd is 6.46.
As to QLIPCMDVVL, the pKd with HLA-A*02:01 [5] (source organism: Triticum aestivum) was 6.42.
For RELHLSWEV, the pKd with HLA-B*40:01 (setting [9]) was 8.51; with HLA-B*18:01 [6] (setting [9]), 7.10; with HLA-B*44:03 (setting [9]), 7.67; in the experiment with HLA-B*45:01 (setting [9]), 7.75; in the experiment with HLA-B*44:02 (setting [9]) it was 7.06; with HLA-B*40:02 (setting [9]), 8.30.
In the case of AEVQIDRLIT, the pKd is 5.91 with HLA-B*40:01 (setting [9]); ≤ 4.59 in the experiment with HLA-B*18:01 [6] (setting [9]); 7.04 in the experiment with HLA-B*44:03 (setting [9]); 6.80 in the experiment with HLA-B*45:01 (setting [9]); 5.78 with HLA-B*44:02 (setting [9]); 7.23 with HLA-B*40:02 (setting [9]).
EEKGISGTS: the pKd was ≤ 4.27 with HLA-B*40:01 (setting [10]); ≤ 4.11 in the experiment with HLA-B*18:01 [6] (setting [10]); ≤ 4.11 in the experiment with HLA-B*44:03 (setting [10]); 5.65 in the experiment with HLA-B*45:01 (setting [10]); ≤ 4.47 with HLA-B*44:02 (setting [10]); ≤ 4.34 with HLA-B*40:02 (setting [10]).
In the case of YSPALNKMF, the pKd in the experiment with HLA-B*15:17 (source organism: Homo sapiens) was 6.47.
Consider TPTGTVMDI, for which the negative-log Kd (pKd) in the experiment with HLA-B*53:01 was 6.94; in the experiment with HLA-B*51:01 [1] (setting [8]), 5.14.
As for FLAAECPFL, the pKd in the experiment with HLA-A*03:01 is ≤ 4.70; with HLA-A*02:01 [7] (source organism: Itapua hantavirus), 8.77; with HLA-B*27:03 (setting [11]) it was ≤ 4.70; with HLA-B*57:01 (setting [11]), ≤ 4.70; in the experiment with HLA-B*46:01 (setting [11]) it was ≤ 4.70; in the experiment with HLA-B*18:01 [3] (setting [11]) it was ≤ 4.70. Moreover, the pKd with HLA-B*15:17 (setting [11]), with HLA-A*26:01 (setting [11]) and with HLA-B*51:01 [4] (setting [11]) was ≤ 4.70 each time.
As for TLKDGDFIL, the pKd in the experiment with HLA-A*02:01 [7] (source organism: Homo sapiens) is ≥ 9.00; in the experiment with HLA-B*27:03 (source organism: Homo sapiens), ≤ 4.70; in the experiment with HLA-B*57:01 (source organism: Homo sapiens) it was ≤ 4.70; with HLA-B*46:01 (source organism: Homo sapiens), ≤ 4.70; with HLA-B*18:01 [3] (source organism: Homo sapiens) it was ≤ 4.70; with HLA-B*15:17 (source organism: Homo sapiens) it was ≤ 4.70. The pKd in the experiment with HLA-A*26:01 (source organism: Homo sapiens), in the experiment with HLA-B*51:01 [4] (source organism: Homo sapiens), with HLA-B*39:01 and with HLA-A*69:01 (source organism: Homo sapiens) was ≤ 4.70 each time.
For REAPAHVST, the pKd is 7.33 with HLA-B*40:01 (setting [9]); 5.28 with HLA-B*18:01 [6] (setting [9]); 5.07 with HLA-B*44:03 (setting [9]); 6.97 in the experiment with HLA-B*45:01 (setting [9]); 5.34 with HLA-B*44:02 (setting [9]); 7.35 with HLA-B*40:02 (setting [9]).
Take LVAGGLLTV: the pKd was 8.40 with HLA-A*02:06 and ≤ 4.70 in the experiment with HLA-A*69:01 (source organism: dengue virus type 2).
The sequence LYNTAIVGL had a pKd with HLA-A*24:03 (source organism: Mycobacterium tuberculosis variant bovis) of 9.10.
For the sequence FDAWFSQRGG, the pKd was ≤ 4.16 with HLA-B*40:01 (setting [9]); ≤ 4.15 with HLA-B*18:01 [6] (setting [9]); ≤ 4.49 in the experiment with HLA-B*44:03 (setting [9]); 6.44 with HLA-B*45:01 (setting [9]); 5.01 in the experiment with HLA-B*44:02 (setting [9]); ≤ 4.15 in the experiment with HLA-B*40:02 (setting [9]).
For the sequence TEAILQLGDL, the pKd is 5.53 with HLA-B*40:01 (setting [12]); 4.97 in the experiment with HLA-B*18:01 [6] (setting [12]); 5.37 in the experiment with HLA-B*44:03 (setting [12]); 4.88 with HLA-B*45:01 (setting [12]); 5.61 with HLA-B*44:02 (setting [12]); 6.03 with HLA-B*40:02 (setting [12]).
Consider GLSRYVAR, for which the negative logarithm of the Kd (pKd) with HLA-A*02:01 [5] (source organism: Hepatitis B virus) is ≤ 4.30.
Consider GDEALRGFL, for which the pKd with HLA-B*40:01 (setting [13]) is 5.15; with HLA-B*18:01 [6] (setting [13]), ≤ 4.29; with HLA-B*44:03 (setting [13]), ≤ 4.44; with HLA-B*45:01 (setting [13]), ≤ 4.36; with HLA-B*44:02 (setting [13]), ≤ 4.33; with HLA-B*40:02 (setting [13]) it was 6.08.
For the sequence FELLNAPAT, the pKd in the experiment with HLA-B*40:01 (setting [9]) is 5.93; in the experiment with HLA-B*18:01 [6] (setting [9]) it was 6.52; with HLA-B*44:03 (setting [9]), 5.21; with HLA-B*45:01 (setting [9]), 6.41; in the experiment with HLA-B*44:02 (setting [9]) it was 5.24; in the experiment with HLA-B*40:02 (setting [9]), 7.95.
Consider DMEISAYRKL, for which the pKd with HLA-A*02:01 [5] (source organism: Homo sapiens) is ≤ 4.23; with HLA-A*02:03 it was ≤ 4.56; with HLA-A*68:02 it was ≤ 4.22.
With KEEILGTVSW, the pKd with HLA-B*40:01 (setting [9]) was 4.71; in the experiment with HLA-B*18:01 [6] (setting [9]) it was 6.33; in the experiment with HLA-B*44:03 (setting [9]) it was 7.32; in the experiment with HLA-B*45:01 (setting [9]) it was 5.55; with HLA-B*44:02 (setting [9]), 8.35; with HLA-B*40:02 (setting [9]) it was 6.58.
As for MEAQFLYLYA, the pKd with HLA-B*40:01 (setting [9]) was 5.84; in the experiment with HLA-B*18:01 [6] (setting [9]), 6.45; with HLA-B*44:03 (setting [9]), 8.09; with HLA-B*45:01 (setting [9]), 8.35; in the experiment with HLA-B*44:02 (setting [9]) it was 7.25; with HLA-B*40:02 (setting [9]) it was 7.16.
